# Data as given in the supplement of paper PMC10266784.
# B1: library; numbered along this chain (parent)
# chain: MAAAAAAAAEQQSSNGPVKKSMREKAVERRSVNKEHNSNFKAGYIPIDEDRLHKTGLRGRKGNLAICVIILLFILAVINLIITLVIWAVIRIGPNGCDSMEFHESGLLRFKQVSDMGVIHPLYKSTVGGRRNENLVITGNNQPIVFQQGTTKLSVENNKTSITSDIGMQFFDPRTQNILFSTDYETHEFHLPSGVKSLNVQKASTERITSNATSDLNIKVDGRAIVRGNEGVFIMGKTIEFHMGGNMELKAENSIILNGSVMVSTTRLPSSSSGDQLGSGDWVRYKLCMCADGTLFKVQVTSQNMGCQISDNPCGNTH
# Variants of: B1
# Experiment: SGCB cell-surface expression functional score (HA stain, bin4 vs bin1, normalised to synonymous) (log10 ratio); higher = more cell-surface SGCB (functional)
# Procedure, shortened: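 HEK293 cells stably expressing alpha-, gamma- and delta-sarcoglycan received codon-saturation libraries of HA-tagged, YFP-fused human beta-sarcoglycan by lentiviral transduction at MOI <0.1, performed in duplicate. Cells positive for YFP were sorted after 72 hours and cultured for 5–7 days, then stained on ice with Alexa Fluor 647 anti-HA and fixed. Fixed cells were sorted into four 5% intensity bins and amplicon-sequenced, and the log ratio of highest-bin to lowest-bin variant frequency, as a median over codons and transductions, gives the functional score. Per section, synonymous variants were scaled to mean 0, SD 0.5.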
row,Variant,SGCB cell-surface expression functional score (log10)
1,MAAAAAAAAEQQSSNGPVKKSMREKAVERRSVNKEHNSNFKAGYIPIDEDRLHKTGLRGRKGNLAICVIILLFILAVINLIITLVIWAVIRIGPNGCDSMEFHESGLLRFKQVSDMGVIHPLYKSTVGGRRNENLVITGNNQPIVFQQGTTKLSVENNKTSITSDIGMQFFDPRTQNILFSTDYETHEFHLPSGVKSLNVQKASTERITSNATSDLNIKVDGRAIVRGNEGVFIMGKTIEFHMGGNMELKAENSIILNGSVNVSTTRLPSSSSGDQLGSGDWVRYKLCMCADGTLFKVQVTSQNMGCQISDNPCGNTH [M262N],0
2,MAAAAAAAAEQQSSNGPVKKSMREKAVERRSVNKEHNSNFKAGYIPIDEDRLHKTGLRGRKGNLAICVIILLFILAVINLIITLVIWAVIRIGPNGCDSMEFHESGLLRFKQVSDMGVIHPLYKSTVGGRRNENLVITGNNQPIVFQQGTTKLSVENNKTSITSDIGMQFFDPRTQNILFSTDYETHEFHLPSGVKSLNVQKASTERITSNATSDLNIKVDGRAIVRGNEGVFIMGKTIEFHMGGNMELKAENSIILNGSVYVSTTRLPSSSSGDQLGSGDWVRYKLCMCADGTLFKVQVTSQNMGCQISDNPCGNTH [M262Y],0.79
3,MAAAAAAAAEQQSSNGPVKKSMREKAVERRSVNKEHNSNFKAGYIPIDEDRLHKTGLRGRKGNLAICVIILLFILAVINLIITLVIWAVIRIGPNGCDSMEFHESGLLRFKQVSDMGVIHPLYKSTVGGRRNENLVITGNNQPIVFQQGTTKLSVENNKTSITSDIGMQFFDPRTQNILFSTDYETHEFHLPSGVKSLNVQKASTERITSNATSDLNIKVDGRAIVRGNEGVFIMGKTIEFHMGGNMELKAENSIILNGSVRVSTTRLPSSSSGDQLGSGDWVRYKLCMCADGTLFKVQVTSQNMGCQISDNPCGNTH [M262R],0.7
4,MAAAAAAAAEQQSSNGPVKKSMREKAVERRSVNKEHNSNFKAGYIPIDEDRLHKTGLRGRKGNLAICVIILLFILAVINLIITLVIWAVIRIGPNGCDSMEFHESGLLRFKQVSDMGVIHPLYKSTVGGRRNENLVITGNNQPIVFQQGTTKLSVENNKTSITSDIGMQFFDPRTQNILFSTDYETHEFHLPSGVKSLNVQKASTERITSNATSDLNIKVDGRAIVRGNEGVFIMGKTIEFHMGGNMELKAENSIILNGSVDVSTTRLPSSSSGDQLGSGDWVRYKLCMCADGTLFKVQVTSQNMGCQISDNPCGNTH [M262D],-0.81
5,MAAAAAAAAEQQSSNGPVKKSMREKAVERRSVNKEHNSNFKAGYIPIDEDRLHKTGLRGRKGNLAICVIILLFILAVINLIITLVIWAVIRIGPNGCDSMEFHESGLLRFKQVSDMGVIHPLYKSTVGGRRNENLVITGNNQPIVFQQGTTKLSVENNKTSITSDIGMQFFDPRTQNILFSTDYETHEFHLPSGVKSLNVQKASTERITSNATSDLNIKVDGRAIVRGNEGVFIMGKTIEFHMGGNMELKAENSIILNGSVQVSTTRLPSSSSGDQLGSGDWVRYKLCMCADGTLFKVQVTSQNMGCQISDNPCGNTH [M262Q],0.93
6,MAAAAAAAAEQQSSNGPVKKSMREKAVERRSVNKEHNSNFKAGYIPIDEDRLHKTGLRGRKGNLAICVIILLFILAVINLIITLVIWAVIRIGPNGCDSMEFHESGLLRFKQVSDMGVIHPLYKSTVGGRRNENLVITGNNQPIVFQQGTTKLSVENNKTSITSDIGMQFFDPRTQNILFSTDYETHEFHLPSGVKSLNVQKASTERITSNATSDLNIKVDGRAIVRGNEGVFIMGKTIEFHMGGNMELKAENSIILNGSVIVSTTRLPSSSSGDQLGSGDWVRYKLCMCADGTLFKVQVTSQNMGCQISDNPCGNTH [M262I],-0.11
7,MAAAAAAAAEQQSSNGPVKKSMREKAVERRSVNKEHNSNFKAGYIPIDEDRLHKTGLRGRKGNLAICVIILLFILAVINLIITLVIWAVIRIGPNGCDSMEFHESGLLRFKQVSDMGVIHPLYKSTVGGRRNENLVITGNNQPIVFQQGTTKLSVENNKTSITSDIGMQFFDPRTQNILFSTDYETHEFHLPSGVKSLNVQKASTERITSNATSDLNIKVDGRAIVRGNEGVFIMGKTIEFHMGGNMELKAENSIILNGSVCVSTTRLPSSSSGDQLGSGDWVRYKLCMCADGTLFKVQVTSQNMGCQISDNPCGNTH [M262C],0.37
8,MAAAAAAAAEQQSSNGPVKKSMREKAVERRSVNKEHNSNFKAGYIPIDEDRLHKTGLRGRKGNLAICVIILLFILAVINLIITLVIWAVIRIGPNGCDSMEFHESGLLRFKQVSDMGVIHPLYKSTVGGRRNENLVITGNNQPIVFQQGTTKLSVENNKTSITSDIGMQFFDPRTQNILFSTDYETHEFHLPSGVKSLNVQKASTERITSNATSDLNIKVDGRAIVRGNEGVFIMGKTIEFHMGGNMELKAENSIILNGSVGVSTTRLPSSSSGDQLGSGDWVRYKLCMCADGTLFKVQVTSQNMGCQISDNPCGNTH [M262G],0.53
9,MAAAAAAAAEQQSSNGPVKKSMREKAVERRSVNKEHNSNFKAGYIPIDEDRLHKTGLRGRKGNLAICVIILLFILAVINLIITLVIWAVIRIGPNGCDSMEFHESGLLRFKQVSDMGVIHPLYKSTVGGRRNENLVITGNNQPIVFQQGTTKLSVENNKTSITSDIGMQFFDPRTQNILFSTDYETHEFHLPSGVKSLNVQKASTERITSNATSDLNIKVDGRAIVRGNEGVFIMGKTIEFHMGGNMELKAENSIILNGSVPVSTTRLPSSSSGDQLGSGDWVRYKLCMCADGTLFKVQVTSQNMGCQISDNPCGNTH [M262P],-0.34
10,MAAAAAAAAEQQSSNGPVKKSMREKAVERRSVNKEHNSNFKAGYIPIDEDRLHKTGLRGRKGNLAICVIILLFILAVINLIITLVIWAVIRIGPNGCDSMEFHESGLLRFKQVSDMGVIHPLYKSTVGGRRNENLVITGNNQPIVFQQGTTKLSVENNKTSITSDIGMQFFDPRTQNILFSTDYETHEFHLPSGVKSLNVQKASTERITSNATSDLNIKVDGRAIVRGNEGVFIMGKTIEFHMGGNMELKAENSIILNGSVWVSTTRLPSSSSGDQLGSGDWVRYKLCMCADGTLFKVQVTSQNMGCQISDNPCGNTH [M262W],0.08
11,MAAAAAAAAEQQSSNGPVKKSMREKAVERRSVNKEHNSNFKAGYIPIDEDRLHKTGLRGRKGNLAICVIILLFILAVINLIITLVIWAVIRIGPNGCDSMEFHESGLLRFKQVSDMGVIHPLYKSTVGGRRNENLVITGNNQPIVFQQGTTKLSVENNKTSITSDIGMQFFDPRTQNILFSTDYETHEFHLPSGVKSLNVQKASTERITSNATSDLNIKVDGRAIVRGNEGVFIMGKTIEFHMGGNMELKAENSIILNGSVFVSTTRLPSSSSGDQLGSGDWVRYKLCMCADGTLFKVQVTSQNMGCQISDNPCGNTH [M262F],0.95
12,MAAAAAAAAEQQSSNGPVKKSMREKAVERRSVNKEHNSNFKAGYIPIDEDRLHKTGLRGRKGNLAICVIILLFILAVINLIITLVIWAVIRIGPNGCDSMEFHESGLLRFKQVSDMGVIHPLYKSTVGGRRNENLVITGNNQPIVFQQGTTKLSVENNKTSITSDIGMQFFDPRTQNILFSTDYETHEFHLPSGVKSLNVQKASTERITSNATSDLNIKVDGRAIVRGNEGVFIMGKTIEFHMGGNMELKAENSIILNGSVVVSTTRLPSSSSGDQLGSGDWVRYKLCMCADGTLFKVQVTSQNMGCQISDNPCGNTH [M262V],0.78
13,MAAAAAAAAEQQSSNGPVKKSMREKAVERRSVNKEHNSNFKAGYIPIDEDRLHKTGLRGRKGNLAICVIILLFILAVINLIITLVIWAVIRIGPNGCDSMEFHESGLLRFKQVSDMGVIHPLYKSTVGGRRNENLVITGNNQPIVFQQGTTKLSVENNKTSITSDIGMQFFDPRTQNILFSTDYETHEFHLPSGVKSLNVQKASTERITSNATSDLNIKVDGRAIVRGNEGVFIMGKTIEFHMGGNMELKAENSIILNGSVTVSTTRLPSSSSGDQLGSGDWVRYKLCMCADGTLFKVQVTSQNMGCQISDNPCGNTH [M262T],0.19
14,MAAAAAAAAEQQSSNGPVKKSMREKAVERRSVNKEHNSNFKAGYIPIDEDRLHKTGLRGRKGNLAICVIILLFILAVINLIITLVIWAVIRIGPNGCDSMEFHESGLLRFKQVSDMGVIHPLYKSTVGGRRNENLVITGNNQPIVFQQGTTKLSVENNKTSITSDIGMQFFDPRTQNILFSTDYETHEFHLPSGVKSLNVQKASTERITSNATSDLNIKVDGRAIVRGNEGVFIMGKTIEFHMGGNMELKAENSIILNGSVHVSTTRLPSSSSGDQLGSGDWVRYKLCMCADGTLFKVQVTSQNMGCQISDNPCGNTH [M262H],1.32
15,MAAAAAAAAEQQSSNGPVKKSMREKAVERRSVNKEHNSNFKAGYIPIDEDRLHKTGLRGRKGNLAICVIILLFILAVINLIITLVIWAVIRIGPNGCDSMEFHESGLLRFKQVSDMGVIHPLYKSTVGGRRNENLVITGNNQPIVFQQGTTKLSVENNKTSITSDIGMQFFDPRTQNILFSTDYETHEFHLPSGVKSLNVQKASTERITSNATSDLNIKVDGRAIVRGNEGVFIMGKTIEFHMGGNMELKAENSIILNGSVLVSTTRLPSSSSGDQLGSGDWVRYKLCMCADGTLFKVQVTSQNMGCQISDNPCGNTH [M262L],0.57
16,MAAAAAAAAEQQSSNGPVKKSMREKAVERRSVNKEHNSNFKAGYIPIDEDRLHKTGLRGRKGNLAICVIILLFILAVINLIITLVIWAVIRIGPNGCDSMEFHESGLLRFKQVSDMGVIHPLYKSTVGGRRNENLVITGNNQPIVFQQGTTKLSVENNKTSITSDIGMQFFDPRTQNILFSTDYETHEFHLPSGVKSLNVQKASTERITSNATSDLNIKVDGRAIVRGNEGVFIMGKTIEFHMGGNMELKAENSIILNGSVEVSTTRLPSSSSGDQLGSGDWVRYKLCMCADGTLFKVQVTSQNMGCQISDNPCGNTH [M262E],0.65
17,MAAAAAAAAEQQSSNGPVKKSMREKAVERRSVNKEHNSNFKAGYIPIDEDRLHKTGLRGRKGNLAICVIILLFILAVINLIITLVIWAVIRIGPNGCDSMEFHESGLLRFKQVSDMGVIHPLYKSTVGGRRNENLVITGNNQPIVFQQGTTKLSVENNKTSITSDIGMQFFDPRTQNILFSTDYETHEFHLPSGVKSLNVQKASTERITSNATSDLNIKVDGRAIVRGNEGVFIMGKTIEFHMGGNMELKAENSIILNGSVAVSTTRLPSSSSGDQLGSGDWVRYKLCMCADGTLFKVQVTSQNMGCQISDNPCGNTH [M262A],0.37
18,MAAAAAAAAEQQSSNGPVKKSMREKAVERRSVNKEHNSNFKAGYIPIDEDRLHKTGLRGRKGNLAICVIILLFILAVINLIITLVIWAVIRIGPNGCDSMEFHESGLLRFKQVSDMGVIHPLYKSTVGGRRNENLVITGNNQPIVFQQGTTKLSVENNKTSITSDIGMQFFDPRTQNILFSTDYETHEFHLPSGVKSLNVQKASTERITSNATSDLNIKVDGRAIVRGNEGVFIMGKTIEFHMGGNMELKAENSIILNGSVSVSTTRLPSSSSGDQLGSGDWVRYKLCMCADGTLFKVQVTSQNMGCQISDNPCGNTH [M262S],0.7
19,MAAAAAAAAEQQSSNGPVKKSMREKAVERRSVNKEHNSNFKAGYIPIDEDRLHKTGLRGRKGNLAICVIILLFILAVINLIITLVIWAVIRIGPNGCDSMEFHESGLLRFKQVSDMGVIHPLYKSTVGGRRNENLVITGNNQPIVFQQGTTKLSVENNKTSITSDIGMQFFDPRTQNILFSTDYETHEFHLPSGVKSLNVQKASTERITSNATSDLNIKVDGRAIVRGNEGVFIMGKTIEFHMGGNMELKAENSIILNGSVKVSTTRLPSSSSGDQLGSGDWVRYKLCMCADGTLFKVQVTSQNMGCQISDNPCGNTH [M262K],0.79
